Measured values: the supplement of paper PMC10126150
± gives the standard deviation of the averaged measurements.

System: ATP
Test: switch fluorescence ratio, 500 uM ATP over buffer (Cy3 cluster intensity, sum of 5 cycles each) (fold (ratio)); higher = stronger signal-on switching upon ATP binding; sequences stand for … in TCGTCGGCAGCGTCAGATGTGTATAAGAGACAGTTTTTTTTTTTTTTTTTTTTTTTTT…TC
Conditions: aptamer strand: ATP DNA aptamer (quencher-CACCTGGGGGAGTATTGCGGAGGAAGG + anchor), 100 nM annealed; ATP concentration: 500 uM
Outline: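 The fluorescence ratio divides summed target-cycle Cy3 intensity by summed buffer-cycle Cy3 intensity for each cluster and is averaged per switch-domain sequence. Cy3-labelled switching-strand clusters on a modified Illumina MiSeq flow-cell were annealed to 100 nM quencher-labelled ATP aptamer, then imaged in selection buffer and again after 15 min with 500 uM ATP at 22 °C. Five such cycles were run, with NaOH stripping and re-annealing between them, and clusters outside 100-1000 RFU were excluded.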
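Also: ATP exposure 15 min at 22 °C before imaging.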

| Sequence | switch fluorescence ratio |
| --- | --- |
| TTTGGGGGGT | 0.985 ± 0.02 |
| CGCGGATGGG | 1.05 ± 0.05 |
| ATGGGGCACG | 0.987 ± 0.037 |
| ATGGTGGGCT | 0.9811 ± 0.0032 |
| AGGGAGTTAA | 0.973 ± 0.054 |
| CGGGGAGGCT | 0.988 ± 0.047 |
| TTGAGAAGTT | 1.01 ± 0.021 |
| GATGTCTGTT | 0.955 ± 0.021 |
| AATGGGATAG | 1.02 ± 0.021 |
| TTGATCGGGC | 1.03 ± 0.052 |
| TTTTTGACAC | 1.26 ± 0.38 |
| TTTCTTCTCA | 1.01 ± 0.024 |
| ATTCGTTTTA | 0.975 ± 0.013 |
| AAACGGTAGC | 1.07 ± 0.017 |
| CCAAATTGTG | 1.03 ± 0.03 |
| GGGGAAGGCA | 0.946 ± 0.084 |
| ATGCGAAACC | 1.02 ± 0.051 |
| ATGTGGACTG | 1.05 ± 0.014 |
| GACAGGGGCT | 1.06 ± 0.022 |
| TATGATGTGC | 0.969 ± 0.017 |
| CGGGAAGGTA | 0.981 ± 0.016 |
| AAAGTAGTGT | 1.024 ± 0.004 |
| TTAGAGTAGT | 0.988 ± 0.013 |
| TAGTTGGGCG | 0.984 ± 0.098 |
| AGGGGACGGG | 1.05 ± 0.037 |

| Sequence | switch fluorescence ratio |
| --- | --- |
| GCACTAGACT | 1.07 ± 0.029 |
| TCTTAAGTGC | 1.07 ± 0.026 |
| AAAGTTCGTA | 0.985 ± 0.039 |
| GGAGTCATGG | 1.045 ± 0.0073 |
| TTTTTCTTTG | 1.04 ± 0.065 |
| GGGATGGTGG | 0.991 ± 0.024 |
| GGGAGGGCGG | 0.975 ± 0.051 |
| TGTGATTGTT | 1.02 ± 0.013 |
| TTCTAGGTCT | 1.02 ± 0.037 |
| TTAATTTCAG | 1.01 ± 0.023 |
| TATAAACAGG | 0.998 ± 0.023 |
| TTTGGGTTCC | 1.44 ± 0.35 |
| CGAAATGTCC | 1.061 ± 0.002 |
| TTTTGGATAA | 1.016 ± 0.0051 |
| AAGGTCTTAG | 0.968 ± 0.039 |
| TTAAAATGTT | 1.0072 ± 0.00057 |
| GCACGTGGTC | 1.04 ± 0.019 |
| ATGTCCAAGG | 1.005 ± 0.0071 |
| AAGACGAGTT | 0.9962 ± 0.0022 |
| AAAGTGTTGG | 1.02 ± 0.022 |
| GGTCGGGGCG | 1.02 ± 0.071 |
| ATAGACAGCA | 1.01 ± 0.025 |
| AGTTCGTTA | 0.9861 ± 0.0056 |
| ATGGTGATAG | 0.992 ± 0.011 |
| GGTTATAGGA | 0.99 ± 0.036 |

| Sequence | switch fluorescence ratio |
| --- | --- |
| CGTAATGTTA | 1.01 ± 0.019 |
| AGGGACTTGT | 1 ± 0.03 |
| TTTTACGTTT | 1.04 ± 0.12 |
| GGAGGAGAGG | 1.01 ± 0.04 |
| GCCGGTCGGG | 0.985 ± 0.013 |
| GCGTTGTGGA | 1.04 ± 0.02 |
| CTAAGAATAG | 1.02 ± 0.021 |
| CGACTGAGGT | 1.03 ± 0.029 |
| CCGGGGTGTT | 1.22 ± 0.3 |
| TTTGTCAGAC | 1.03 ± 0.054 |
| CGCTGTAGGT | 1.02 ± 0.0058 |
| AAGGTGAAGA | 1.04 ± 0.029 |
| TGACTATTAA | 0.9845 ± 0.0022 |
| TGGGGGGGCC | 0.968 ± 0.0076 |
| GATAATTGTC | 0.951 ± 0.048 |
| TGGGAAATAT | 0.9726 ± 0.0072 |
| TATGGGGAGT | 0.981 ± 0.046 |
| ATTTTTACCT | 1.08 ± 0.19 |
| TCATGCAGAT | 1.02 ± 0.056 |
| ACTGCCCGGC | 1.1 ± 0.12 |
| TCTTCGGAGT | 1.03 ± 0.058 |
| TTTGACGGTA | 1.09 ± 0.016 |
| TATTTACCGC | 1.13 ± 0.034 |
| AGGTATTGCG | 0.994 ± 0.044 |
| GGCAAAGCGT | 1.03 ± 0.025 |

| Sequence | switch fluorescence ratio |
| --- | --- |
| AATAAGATTG | 0.987 ± 0.022 |
| CGAGTATTTT | 1.024 ± 0.0022 |
| CTACCCTTTG | 1.13 ± 0.038 |
| TTAATGGCGA | 0.986 ± 0.033 |
| ATGAGCATCT | 0.996 ± 0.01 |
| GTTGGATAAT | 1 ± 0.033 |
| ATGTAATAGT | 1.014 ± 0.0069 |
| GCTTTAGCAG | 1.03 ± 0.02 |
| CGGATGGAAA | 0.964 ± 0.02 |
| CTGTGCGACA | 1.06 ± 0.053 |
| TTTTGGCGTA | 1.04 ± 0.037 |
| TGAGCTGGCT | 0.989 ± 0.021 |
| TAAGTGGAAT | 0.999 ± 0.022 |
| TCCCCTCGGC | 1.08 ± 0.046 |
| ATATCCGTCA | 1.05 ± 0.051 |
| GCGTAAGGCC | 1.14 ± 0.21 |
| ATGCGGGGTT | 1.02 ± 0.05 |
| TTCGTACGGG | 1.03 ± 0.021 |
| CAGTATGGTA | 1 ± 0.012 |
| CATTATTGGG | 0.9851 ± 0.0017 |
| CGGGGGTCCA | 1.01 ± 0.055 |
| GGGCTTCGTT | 0.9929 ± 0.0074 |
| GTGTCTTTGA | 0.986 ± 0.055 |
| GATGACTTGC | 1 ± 0.064 |
| TGTTGCGCTT | 1.033 ± 0.007 |

| Sequence | switch fluorescence ratio |
| --- | --- |
| AGCAACAGTT | 1.19 ± 0.28 |
| CAGAGGGTGT | 1.12 ± 0.032 |
| ATATATTAAA | 0.981 ± 0.03 |
| CAGGGGTGGG | 0.999 ± 0.058 |
| CCGTGAGTTT | 1.07 ± 0.04 |
| TTGGTTGGGT | 0.997 ± 0.041 |
| TTCTGTGGGA | 1.002 ± 0.006 |
| TCGGGTTAGG | 0.998 ± 0.032 |
| GTGATAGTAA | 1.006 ± 0.0099 |
| AACGAGTGGG | 1.03 ± 0.019 |
| TCTGTGGGGA | 1.04 ± 0.045 |
| CAGGGTGGTA | 0.9934 ± 0.0048 |
| AGCTGGATGC | 1.04 ± 0.036 |
| GGTAGTACTG | 0.995 ± 0.095 |
| CAGAGAGCGT | 1.008 ± 0.0068 |
| TTTTCTTGAA | 0.9852 ± 0.0038 |
| ATGAAAAGGG | 1 ± 0.022 |
| CCTTTTGGGT | 1.015 ± 0.0095 |
| CCGTGAGGTG | 1.135 ± 0.01 |
| AGAGGGGTCG | 1.02 ± 0.058 |
| TCGGTGTCCG | 1.03 ± 0.055 |
| AGTCTCTCAT | 0.992 ± 0.03 |
| TTCACAACCT | 1.77 ± 0.36 |
| CTTTAAGGGA | 0.9875 ± 0.0035 |
| TTTGGGCTTC | 1.0067 ± 0.00097 |

| Sequence | switch fluorescence ratio |
| --- | --- |
| AAATAGAGTT | 0.998 ± 0.013 |
| TGGGGGGCGT | 1.01 ± 0.043 |
| TTAACTCGGA | 0.996 ± 0.056 |
| AGTATTGGGT | 0.998 ± 0.035 |
| GCCGCAGGGA | 2.3 ± 1.9 |
| GGGGGAAAGG | 1 ± 0.025 |
| ACGGTTGTTC | 1.027 ± 0.005 |
| TCTTGTTGGG | 1.01 ± 0.023 |
| GTAAAATGGG | 0.997 ± 0.011 |
| CTCTCTAGCT | 1.035 ± 0.01 |
| TCGTGAGGCT | 0.989 ± 0.036 |
| TTGTGGCGTT | 0.984 ± 0.0045 |
| CCTCTGATTT | 1.47 ± 0.3 |
| AGGGTGTTAG | 1 ± 0.013 |
| AAATGTTTAT | 0.9804 ± 0.0017 |
| CGTTCTTCGC | 1.07 ± 0.094 |
| TTCACGGGTC | 1.06 ± 0.06 |
| CGATGACATG | 0.9877 ± 0.0082 |
| CTGCAATAGA | 4.41 ± 0.16 |
| CCAATTTTAC | 1.39 ± 0.055 |
| GTTGACAGCT | 1 ± 0.015 |
| TTAAAACGGT | 1.21 ± 0.31 |
| ACGGGGGGCG | 0.984 ± 0.052 |
| AGGTGCTAAT | 0.968 ± 0.011 |
| TGGGGACTTG | 0.9782 ± 0.0015 |

| Sequence | switch fluorescence ratio |
| --- | --- |
| ATGAATTGGT | 1.01 ± 0.019 |
| TCCATCGCTT | 1.6 ± 0.79 |
| TTTGTTAGGG | 0.994 ± 0.022 |
| GGGAAGAAGC | 0.997 ± 0.054 |
| GTTTCGTGGG | 0.976 ± 0.031 |
| GCATTTTGGG | 0.986 ± 0.033 |
| CGGGATTTTT | 0.973 ± 0.054 |
| GCACGTATTC | 1.113 ± 0.0047 |
| GGGATCATGG | 1.08 ± 0.083 |
| AAAAGTGTTT | 0.99 ± 0.033 |
| TTGGGCATTG | 1.01 ± 0.017 |
| CGCTTTTGGA | 1 ± 0.036 |
| TTATATCCTG | 0.974 ± 0.038 |
| GGAACTGTGC | 0.948 ± 0.12 |
| CGGGAGGGTG | 1.04 ± 0.038 |
| CAATGTCGTT | 0.985 ± 0.047 |
| GGGTGGACAG | 0.975 ± 0.017 |
| GTAGAAGGGT | 1.01 ± 0.016 |
| TAGGGCGAGG | 0.9899 ± 0.001 |
| TTTCAGCTTA | 1.15 ± 0.15 |
| CAGAAGCGAT | 1.33 ± 0.025 |
| GGAACCAGGC | 1.12 ± 0.032 |
| GAGTTAGGCA | 1.029 ± 0.0098 |
| TGTTTTTCTG | 0.968 ± 0.039 |
| GATGTCAGGT | 1.03 ± 0.044 |

| Sequence | switch fluorescence ratio |
| --- | --- |
| ACTATTTTTG | 0.9745 ± 0.0067 |
| AATTGCACGG | 1.04 ± 0.016 |
| GGGGAGGCAC | 0.9854 ± 0.002 |
| AAAATAGTGT | 1.013 ± 0.01 |
| GAAAGGGCTC | 1.09 ± 0.069 |
| ATACGGGTAG | 0.9821 ± 0.0052 |
| GGATCGTTCC | 1.1 ± 0.017 |
| TCTTACGCCA | 1.06 ± 0.016 |
| GAGTTATGGA | 1.03 ± 0.019 |
| GCTTTTGCTG | 0.997 ± 0.013 |
| GATTATTCTT | 1.03 ± 0.035 |
| CAGGGATAGT | 1.26 ± 0.32 |
| ACGGGTTGAG | 1.03 ± 0.029 |
| GTCGTCAAGT | 1.006 ± 0.0073 |
| GGCCCTGCGG | 1.02 ± 0.025 |
| GAAACTAGTT | 0.992 ± 0.013 |
| TTTGGGGGTA | 1.06 ± 0.068 |
| TCCAGTAGTT | 0.982 ± 0.024 |
| TTCAGGTTTT | 0.99 ± 0.054 |
| TGATAAAGAT | 1.02 ± 0.034 |
| TGGAAAGTAC | 1.28 ± 0.095 |
| TAAGGTGGGT | 1.002 ± 0.0017 |
| TTTACGGGGG | 1 ± 0.043 |
| TGAGGCTAGG | 1.02 ± 0.017 |
| ATGTATTATA | 1.01 ± 0.013 |
